Laboratory results from a protein production outcome set (Wang et al. 2014).

Test: label from the status in PepcDB records

Row | Sequence | protein production
1 | GQYALTNGDPLNGHCYLSGYISLLLRAEPYPTSRYGSQCMQPNNIMGIENICELAARLLFSAVEWARNIPFFPDLQITDQVSLLRLTWSELFVLNAAQCSMPLHVAPLLAAAGLHASPMSADRVVAFMDHIRIFQEQVEKLKALHVDSAEYSCLKAIVLFTSDACGLSDAAHIESLQEKSQCALEEYVRSQYPNQPSRFGKLLLRLPSLRTVSSSVIEQLFFVRLVGKTPIETLIRDMLLSGSSFNWPYMSIQCS | failed
2 | CPLLLRVFTTNNGRHHRMDEFSRGNVPSSELQIYTWMDATLKELTSLVKEVYPEARKKGTHFNFAIVFTDVKRPGYRVKEIGSTMSGRKGTDDSMTLQSQKFQIGDYLDIAIT | failed
3 | MPVYLYYGEDTYSLNQKIDHLVNQNVHAEWKDFNYIKLSGNEKNIAAKVFTEVMTLPFGEGNKIVHTDSDHLIGSLSNEDNNQELENQLSRIPASNILLITSNKKPDSRRTVVKTILKYAQQEEFPLVPCWDKKGIVNLIGKYAAIHQVKFTPDVTDYLVEAIGNNTARVDSEFAKLAVYASEKIISLEEIKQLVSNHNTDYQKLTIAMLRNHSNLAIAQVDKLLDSNEHPLKIVATLTSFFRTWLITKAGVEARLSDIKIAEIAEVKNPKRLYYLKDEIKFVGVQKLKNSLTLLLQLETELKSGTNNLISRIIEICMI | failed
4 | MTEISYEAIAFEQSGPITRITLNRPDAANGMNDTMTRELADAARRADTSGAKVVVLTGSGRFFSAGGDLKAFSTAPSRGAFIKGVADDLHRAISSFARMDAVLITAVNGTAAGAGFSIAVTGDLVLAAESASFTMAYTKVGLSPDGSASYYLPRLVGMRRAQELMLTNRTLSATEAYEWGLVTEVVPDADLADRATKLAEQVAAGSAGSNGAVKSLLLSSLKNSLEEQMEAEGRFIAARADSADGREGVDAFLGKRRPEFA | failed
5 | MGIFERYLSVWVGLSIILGVILGLWQPNIFQLITEFEIAHVNIVVAVFIWVMIYPMMVQIDFSSIQNVGKNPKGLVLTIIINWFVKPFTMAALGWLFFNYLFADLVDPESAQEYIAGMILLGVAPCTAMVFVWSQLTKGDPNYTLVQVSVNDVIMIFAFAPISAFLLGVSDIQVPWETLLISVLLYVLLPLIAGVVTRRMLNKGNDKVDAQKSAEASINADEETNTNTDSTNKSLDNLLATLKPWSVIGLLATVVLLFGFQANTIISEPQTIGLIAIPLMIQTYGIFIIAYLAAKWLKLPHNIAAPACLIGTSNFFELAVAVAISLFGLHSGAALATVVGVLVEVPVMLSLVYFINHTQNWFVEGG | failed
6 | DNDAIYYPVGDVDIERGGPALEVGEEDVLVARSFNEEDYVLDTIAQYPNDPTLGKLTFMIDLKNQQKDQNVADFNGVGKSKLTMSLGYKDGNYPSESQVPIYTSQDVTAKYAVKLRLKGELLVSGDEWMIDYVYAQLASLFQPYPPANFPEVFMCKGGMKLGTFDSFRRTCTFDITYDRSDLSFSQLYFNLFINLAGQKRENRVRLRIDKESYFELYEQSEEM | not failed
7 | MCEHHHAAKHILCSQCDMLVALPRLEHGQKAACPRCGTTLTVAWDAPRQRPTAYALAALFMLLLSNLFPFVNMNVAGVTSEITLLEIPGVLFSEDYASLGTFFLLFVQLVPAFCLITILLLVNRAELPVRLKEQLARVLFQLKTWGMAEIFLAGVLVSFVKLMAYGSIGVGSSFLPWCLFCVLQLRAFQCVDRRWLWDDIAPMPELRQPLKPGVTGIRQGLRSCSCCTAILPADEPVCPRCSTKGYVRRRNSLQWTLALLVTSIMLYLPANILPIMVTDLLGSKMPSTILAGVILLWSEGSYPVAAVIFLASIMVPTLKMIAIAWLCWDAKGHGKRDSERMHLIYEVVEFVGRWSMIDVFVIAVLSALVRMGGLMSIYPAMGALMFALVVIMTMFSAMTFDPRLSWDRQPESEHEES | failed
8 | MTVDEWRLLDVSTAFGSGENSVPDFGESADDDAVVVWLVKGEEAVEKLSEIVFGVNLVLENHLKHGLSEI | failed
9 | MTRFWTRLIVVLTVILGVNYVAWRWMASLNWEAWWIAVPLVIAETYSLIDVMLFGLTVWNIKFRKPPPPPPADATVDVFITTYNEPLDLVMTTALAAKEIRWPHSTWILDDGDRPEMRELAESNGIGYVTRGADWTPDMPRHAKAGNLNNALMLTSGEYLLILDADQIPEPDILDKTLGYFNDDKVALVQTPQYFINVPADDPLGSQAPLFYGPIQQGKDGWNAAFFCGSNAILRREALMQLGLVGYVKATEKSVRRALAASRTAIRKARRSPEAENPLVEQMLNEVEAATESAQKELEAGASLSEITYRVRRQVDDAVRTLVAADFSALQSDLEEIAAMELAHVGESGVTTVATDAVDRMSGRDWSPLGALESVHAVLDAISVERTDEAQPIMPLATISVTEDMATAMRLHGLGWKSVYHHEILANGLAPEDVKTMLTQRLRWAQGTMQVLLRENPLVQRRLTWGQRLMYFSTMWTYLSGFAAVVYFAAPIIYLTLGILPVNSISSDFFIRFIPFMVVNQLLFLVAGHGIPTWRGQQYSLALFPTWIKACTTAARNVWFGRPLGFAVTPKARQSGGPSWSLIRPQIIVAVLLAVALIVGLIRLLAGMSEPLGTLVNVAWVAFDLVVLSVLVKAVLYKGFVPEVVGPERPEERNADAV | failed
10 | MDMVTVTAKTVEEAVTKALIELQTTSDKLTYEIVEKGSAGFLGIGSKPAIIRAKRKETLQDKAIEFLEQVFDAMNMAVDISVEYNETEKEMNVNLKGDDMGILIGKRGQTLDSLQYLVSLVVNKSSSDYIRVKLDTENYRERRKETLETLAKNIAYKVKRTKRSVSLEPMNPYERRIIHAALQNDKYVVTRSDGEEPFRHVIISLKRENRRDRNDRSDRNEK | not failed
11 | VEPQSQALLHAQPIISIRVWGVGRDSGRERDFAYVARDKLTQMLKCHVFRCEAPAKNIATSLHEICSKIMAERRNARCLVNGLSLDHSKLVDVPFQVEFPAPKNELVQKFQVYYLGNVPVAKPVGVDVINGALESVLSSSSREQWTPSHVSVAPATLTILHQQTEAVLGECRVRFLSFLAVGRDVHTFAFIMAAGPASFCCHMFWCEPNAASLSEAVQAACMLRYQKCLDARSQASTSCLPAPPAESVARRVGWTVRRGVQSLWGSLKPKRLGAHTP | failed
12 | MLEAAQGAPASSGRRTRRPGLSEEVLRAYAYACAFCGYDGMLGRNPVGLEAAHIRWHSQDGPDTLANALALCALHHILFGLGVLGLSPGLRIQVSPLYVARSHAGHAVGILHRRPLAPPRPGHPSPGPEHIHWHHQQVFKHAPTPVAR | failed
13 | MKTSFSIRIAFFFILSFLAVSCHRDTDALNMTFSKVEKCMDLCPDSALNLLKGIHDPEKLWGESQATYALLMTQAMDKNYMKFSSDSLIALALNYYTITQTSPIMYAKALFYHGRVMLELDKEEEALKSFLAAKDVYERTKDHKMLALIAEEVGMINRKQDLYDDALTNFREALTTYKQLKDSLSVISASLNIARVYLFKSEWDSCSLYYNNALEIAVQKNYLSEITILHELGILYRSMQNLSEAERYFLAAYEKETDEEKKYMECLSLGYLYMQMGQTENARKYLIMSANSSKAYTQISAYDCLYFLEKDIDNFEEAIVYHELADSITNAMEELNSRELIASLQKKYENEKLRNDNLQMKVRYTNFILWGTIAFLFVVACMCYYYYKNRNNKKKIAEIELQIQENEEEIERYQQEIEDIQISKDQVLKENLMLEENRTKVGELNGKIVLLTMQNKTLSEHLKELGGELNVGISSGSFIHAFRLLLAIKEGTLRGKLSNEERQKLFSLFDLIYWNYVSRLLERAPTLTKHDLEICCFLKFGLSHEELSCIFHTTSDSVTRAKGRLKGRLGISPQDDLDLFLKEF | failed
14 | MVRRLTNGRWGLTLLILALMYIIALGLMARPAAADPGITLVLNGSRVNPSVPAYTDSNGRTMVPVRFVMEHMGGRVEWLDAEQGIVVSRGATTLKMWIGKRQAQVNGQAIDLDTVPVLQDGTSMVPVRFVAQAFGGKVEWDDASRTVSIWLGTASPAGQVRITGSYVNVRTGPGTSYGVIDVLPRDTLVQLLATGDGWYQVQLPDGRQGWVSASYSEVLQGNNQPQDTNPPGNNQPGNGQSPGNNPSPGNNQPGNEEPPSGQPLGTAIIGNKPVAILAGPNPVEKQVGMAPAGSRLPIWQQQGDWWLVELDNGLRGWLASSLATFSPEKPGQDNGGSETGNGGTAPGEGNQGVGNSDSNSLKITGVTVNPGPDWIEVTVQGTRPFTFKSSRWADHLIFDIPGATLAVAPGQDKVEVNRQPLARVRLGQYDANTVRVVCDLNGAANFTTTTAGSTITIRLQKPSVRGAKIVIDPGHGTDPQGSDPGAIGPSGVQEKDVNLAISRKLAELLRAAGATVYMTRDGETTPYTLSGRAYYANEVGADLFICIHSNASLSPSASGTSTYFYAPPGTALGEQRDARQRLATLIQRDLVAAIGRRDLGVKEANFAVLRNTKMPSVLVETAFISNPTEEQLLASPDFQALVAQGIFNGISDYLSGQ | failed
15 | MGHHHHHHSHMDSHDLQRFLSDFRDLMSWINGIRGLVSSDELAKDVTGAEALLERHQEHRTEIDARAGTFQAFEQFGQQLLAHGHYASPEIKQKLDILDQERADLEKAWVQRRMMLDQCLELQLFHRDCEQAENWMAAREAFLNTEDKGDSLDSVEALIKKHEDFDKAINVQEEKIAALQAFADQLIAAGHYAKGDISSRRNEVLDRWRRLKAQMIEKR | not failed
16 | MKLLENSRFEALSSQLCVETGDAQIIGRIESYSCKMAGDDKHMFKQFCQEGEPHVLEALSPPQSSSAPSPNLLGKSGEDAENPLSDKCCRKTLFYLITTLNESFRPDYDFSAARAHEFSREPSANWVANSVNSSLYSAVGEQFNTLGPELWTAIDQEINLQGCDIYSYNPDLDSDPFGEEGSLWSFNYFFYNKKLKRILFFTCRSVSVLSSYGRSGLDNELDMELDDEEELDGFMEDRIPRALCV | failed
17 | MNAAVVRRTQEALGKVIRRPPLTEKLLSKPPFRYLHDIITEVIRMTGFMKGLYTDAEMKSDNVKDKDAKISFLQKAIDVVVMVSGEPLLAKPARIVAGHEPERTNELLQIIGKCCLNKLSSDDAVRRVLAGEK | not failed
18 | MNLPSRQWSSEVRQLVFIGFSAITAVVLSYSYVATVGLSEMLFAIVGAGLLLALVVILPVILLD | failed
19 | MLGTSFNNFGISLSHKRYFSGKVDEIIRCTMGKRIVKISSTKINTSILSSVSEQIGENITDWKNDEKKVYVSRVVNQCIDKFCAEHSRKIGDNLRKQIFKQVEKDYRISLDINAAQSSINHLVSGSSYFKKKMDELCEGMNRSVKNDTTSNVANLISDQFFEKNVQYIDLKKLRGNMSDYITNLESPFLEHHHHHH | failed
20 | GDAQAGLVLLHGRGASAQGMLQLADDLDVPDIAHLAPQARMRSWYPQSFMAPRDQNEPELASALATIGDVLGRLADAGIGPARTVLLGFSQGACLATTYAAQTPQRYGGVVGLSGGLIGPDGASFDYEGSLDATPVFLGCSDQDPYIPRARVAETADVLRALNADVTSRIYEGLGHTINDAERQHARSLLRRCVD | failed
